Substitutions are numbered along the chain they refer to.
B1: CR6261 germline variant sCDR H2/sCDR H3, soluble IgG (antibody, V domains shown)
VH: QVQLVQSGAEVKKPGSSVKVSCKASGGTFSSYAISWVRQAPGQGLEWMGGIIPIFGTTKYAPKFQGRVTITADESTSTAYMELSSLRSEDTAVYYCAKHMGYQVRETMDVWGKGTTVTVSS
VL: QSVLTQPPSVSAAPGQKVTISCSGSSSNIGNNYVSWYQQLPGTAPKLLIYDNNKRPSGIPDRFSGSKSGTSATLGITGLQTGDEADYYCGTWDSSLSAYVVFGGGTKLTVL
B2: CR6261 germline variant sCDR H2, soluble IgG (antibody, V domains shown)
VH: B1 VH with V104L
VL: B1 VL
B3: CR6261 germline variant sCDR H1/sCDR H2/sFR3, soluble IgG (antibody, V domains shown)
VH: B1 VH with T28P, S30R, E74D, S75F, T76A, S77G, A79V, V104L
VL: B1 VL
B4: CR6261 germline variant sCDR H1/sFR3, soluble IgG (antibody, V domains shown)
VH: QVQLVQSGAEVKKPGSSVKVSCKASGGPFRSYAISWVRQAPGQGLEWMGGIIPIFGTANYAQKFQGRVTITADDFAGTVYMELSSLRSEDTAVYYCAKHMGYQLRETMDVWGKGTTVTVSS
VL: B1 VL
B5: CR6261 germline variant sFR3/sCDR H3, soluble IgG (antibody, V domains shown)
VH: B4 VH with P28T, R30S, L104V
VL: B1 VL
B6: CR6261 germline variant sCDR H1/sCDR H2, soluble IgG (antibody, V domains shown)
VH: B1 VH with T28P, S30R, V104L
VL: B1 VL
B7: CR6261 germline variant sCDR H1, soluble IgG (antibody, V domains shown)
VH: B4 VH with D74E, F75S, A76T, G77S, V79A
VL: B1 VL
B8: CR6261 germline variant sCDR H3, soluble IgG (antibody, V domains shown)
VH: B1 VH with T58A, K59N, P62Q
VL: B1 VL

Molecular target: H1 A/New Caledonia/20/1999 haemagglutinin, wild-type trimeric protein (Influenza A virus A/New …, UniProt Q6WG00, strain)
Test: ELISA

Row | Binder | ELISA endpoint dilution titre [µg/mL] | binding result
1 | B1 | 0.15 | –
2 | B2 | > 100 | no binding (tested: >100 µg ml^-1)
3 | B3 | 0.00133 | –
4 | B4 | 0.00133 | –
5 | B5 | > 100 | no binding (tested: >100 µg ml^-1)
6 | B6 | 0.15 | –
7 | B7 | 0.15 | –
8 | B8 | > 100 | no binding (tested: >100 µg ml^-1)

Reference: article PMC7095019 (Nature, 2012)
